Measurements reported in patent US20160146786A1, “Method of monitoring cellular trafficking of peptides” (PHYLOGICA LIMITED, priority 2013, published 2016).

What was measured:
[1] = CD spectrophotometry of FITC-labelled peptides; format: physicochemical
[2] = test system: HEK-293 cells expressing GFP 11+GFP 1-10 fragments; experiment: Effect of cargo peptides on reconstitution of split GFP activity, transfected constructs (FIG. 17); format: cell-based, human; settings: peptide fused to Sumo-GFP 11, expressed from transiently transfected constructs; independent of uptake
From the text: FIG. 17 is a graphical representation showing the effect of cargo proteins on reconstitution of split GFP activity in isolated HEK-293 cells expressing GFP 11+GFP 1-10 fragments. HEK-293 cells transfected with GFP 1-10 vectors pcDNA4/TO vector [TO hGFP1-10(a)] or pcDNA4/HM vector [HM hGFP1-10(a)] are shown on the abscissa. Relative fluorescence for each GFP 11 construct added to the cells, normalized for activity in the presence of the MyD88_S11 and mGFP1-10 constructs, is indicated on the y-axis. The GFP 11 constructs lacking cargo peptides were: MyD88-GFP 11 fusion (MyD88_S11); Mal-GFP 11 fusion (Mal_S11), β-actin-GFP 11 fusion β-actin_S11), and Sumo-GFP 11 fusion (Sumo_S11). […]
The inventors have also considered the effect of cargo protein on reconstitution of split GFP activity in isolated HEK-293 cells expressing GFP 11+GFP 1-10 fragments. HEK-293 cells were transfected with GFP 1-10 vectors pcDNA4/TO vector [TO hGFP1-10(a)] or pcDNA4/HM vector [HM hGFP1-10(a)], and recombinant GFP 11-encoding constructs were added to the cells, and fluorescence activity was determined as a normalized value relative to fluorescence obtained for transfections employing MyD88-GFP11 and mGFP1-10 constructs. […]

[3] = biological target: hGFP1-10(a) (humanized variant of commercially-available mGFP1-10, 'A' variant, expressed from pcDNA4/TO or pcDNA4/HM); experiment: cell-based or functional assay
endosome = settings: Sugita et al. 2008; cited from earlier work

| Substance | CD spectral analysis, conformation ([1]; NaF Buffer pH 7.2) | CD spectral analysis, conformation ([1]; SDS Micelles pH 7.2) | CD spectral analysis, conformation ([1]; SDS Micelles pH 4.5) | other results |
| --- | --- | --- | --- | --- |
| C20_ABH_0304_1746: identified CPP, 38 aa; Transposase fragment [Bordetella pertussis] (PLKPKKPKTQEKKKKQPPKPKKPKTQEKKKKQPPKPKR) | Strong Beta-turn | Strong Beta-turn |  |  |
| PYC35: cargo protein, which is not a CPP (RSDYKDDDDKAYQSIRSGGIESSSKRER) |  |  |  | Decrease of Sumo_S11 fluorescence (reconstitution of split GFP activity) [2]: no-effect |
| T08_HBM_0104_0084: identified CPP, 33 aa (RKQKSLQTKLAENPPVPRKKRQSRPRWKQWLQK) | Partially helical | Helical | Helical |  |
| T09_HBM_0103_0167: identified CPP, 32 aa (PSSTPATNVARPRLNPIRGHKFALAVPNSRTR) | Coil with Beta-turn | Coil with Beta-turn | Random coil | CD spectral analysis, conformation ([1]; NaF Buffer pH 4.5): Random coil |
| TAT-Sumo-GFP 11 fusion |  |  |  | decrease of GFP fluorescence (split GFP reconstitution) relative to Sumo S11 in transiently transfected HEK-293 cells [3]: > 50% |
| transferrin: named in cited endosome escape study |  |  |  | Efficiency of endosome escape (endosome): low |
